These results are taken from the DeepSol protein solubility set.

The series is described as follows: soluble on expression in E. coli; label from the status in PepcDB or PDB records.
In the case of “MGSDKIHHHHHHMEFTDLQIFIHLSDTKNFTKTATQNHMSPSTLSRQIQRLEDELGKTLFIRDNRQVKLTEYGEKFLQFAKTEWQNWQQFKQQLKDESDELCGEIKLFCSVTASYSHLPHVLKEFRQRYPKVEIQLTTGDPALALELIQAQQVDLALAGKPNNLPSSVVFHKIDDISLSLIAPRVACLATQLLQEKPIDWQQMPFIFPVEGHARQRIEQWLREKQIKHPKIYATVAGHEGIVPMVGLGFGLAMLPDAVIDSSPMNNQISRLNLDKPIEPFELGICTQKRNLEQPLVRAFWAMLE”, the “soluble on expression in E. coli” value is given as “not soluble”. For “TETSPDKWLIDGDTPLDEVERAIGYELPEGDYETISGLLFDHANALLKTGDVIEIPLDFEPEDYLNNTSPTQRILRITVLEVERNVPVKLALALLEDHPDNHPAPKENR” the value was “soluble”; for “MRTILIDWFSDAVREYISRKEAVHLAASLVDRALPMFNIDKMRFQLVGITSMRIAVKYEEIFPPILSNTRHSFDGAILYWKVRLHRRNAHTILDRIMLCTENELGVCRQLLTQGFATSYPSLA”, “not soluble”. For “MRVKIRRELLEYLLELAKSFYPREVAGFLRMKDGVFEEVLIVPKGFFGESSVYFDLTLMPHDESIKGTFHSHPSPFPYPSEGDLMFFSKFGGIHIIAAFPYDEDSVKAFDSEGREVELEVID” the value was “soluble”; for “MAADYTHFIHRQHAPPEVCLSAFSGHNDALDFPDSEGSPVSQSLIAALQNPALFPHPVEGFQVIETHISWVLLTGPFAYKVKKPVNFGFLDFTSLDAREHFCGEELRLNQRLTEDLYLEVLPITGSAEAPVLGGDGPAIEYVLKMRQFPQSQLLSTLQANSELTTAHIDEMARQIAHFHLNAPKVPAEHEAGTPESVMAPVRQNFEQIRPFLSDKADLQQLEALEAWAETSFERLKPLLAQRKSEGFIRECHGDIHLGNATLIDGKVVIFDCIEFNEPFRFTDVYADTGFLAMDLEDRGLKSLARRFISQYLELTGDYQGLELLNFYKAYRALVRAKVSLFSMPAEATPVQRATTLRQYRNYANLAESYSTIPSRFLAITSGISAVGKSRVAMRLVEALGAVRLRSDVERKRLFGEQQVPNDPHAGIYSSEASSATYARLHEIAETILRAGFPVVIDATYLKRAQRDAAAKVAEATGTPCLIIDCNAPEAVVASWLAQRQADQNDPSDATLEVIANQQATREALTDEELLRSKRIETNESGSLDALVANIRQRLPGLLEHHHHHH”, “not soluble”. For “MGSDKIHHHHHHMRIYDPFRKKWIEEEIETPFPSKGLVATFPFVDLHVHVRLNGGEDYSSLEEASLVGGFFKVVVQPNTKPLIDSKEVLERHLDLSKNRAVEFLFAVSPFGSIEAEGERVVGFSTDGIEYDYPTLVETMKKKKKALWFDHSQMYEVDGIFYEGAPLPFQKRPRSNEAIAIARTVLTGLEYGFERFHIQHVTTKYSVEVISFLKNLAKVSCEVTPHHLFFCYEDIKNTNFKINPPLGSPEDRRALIEAVKKDVIDVLATDHAPHHEKPDDFLTAPYGSTSIEIAFPAYYTALGDLELVVKKLTKKPLEVLGVEARLTEDTLVFIDPEAEFIVDAKKFKSKGKNSMFDGVRLKGKVVALKLKGRWVMIDGEVIADQKEND” the value was “not soluble”.

In the case of “MSLEKLLPDPDPTFERPYTLCLSLDDLLIHSEWTREHGWRIAKRPGVDYFIRYLSQYYELVLFTTTPYATGEPVMRKLDPFRLILWPLYREATKFEDGEIVKDLSYLNRDLSKVIIIDTKAKHVRNQPDNAIILDPWKGDKDDKNLVNLIPFLEYIHTMQYSDVRKVIKSFDGKDIPTEGHHHHHH”, the “soluble on expression in E. coli” value is “soluble”.

As for “MAKILVLYYSMYGHIETMAHAVAEGAKKVDGAEVIIKRVPETMPPEIFAKAGGKTQNAPVATPQELADYDAIIFGTPTRFGNMSGQMRTFLDQTGGLWASGSLYGKLGSVFSSTGTGGGQEQTITSTWTTLAHHGMVIVPIGYAAQELFDVSQVRGGTPYGATTIAGGDGSRQPSQEELSIARYQGEYVAGLAVKLNG”, the “soluble on expression in E. coli” value was “not soluble”. Take “GPGSMPAIVKQLPSSDDDNDQASLSPAKQYAQLGEESSPAGASRAELSNAEAGAEAEGLAQPQKTDASGAERVVDVEECSRLKAAGNELFKDGNISEALTLYRKALWCAPLKPVRPHHPATGESSGLPTPPNGSAPAASSHTATQRDETEVEQQPEDKTDYTLTAQVYCNAGFCLMKLDVKEEAAHMLSEAIRHDDSYLKAYIRRADCYYMMQKWSSAYGDYESYEKLGGVLDAQGCTRKAASKAKVDEEMQKMLGELKSLGNKILGNFGLSTDNFKFDKDPNTGGYSMRFER”: the “soluble on expression in E. coli” value was “soluble”. The result for “MGSDKIHHHHHHMQTVQALLTAAKVDSAESPYDTIHIKVLYPAKNTDSNLEKNWGMLPVDAAQAPFPVVIFFNGFNCDAQKYQWLGIELAQTGLVVVMFNWVGESLPGLVSFTPGFEIEKRKREFYGTVPTASALPVILTKLAQLQSAGILSGTLDLEKIILGGHSEGGRVAMENANPNFFPQVVASFAYGSHTAGAVMLGYKPNTILPLPDTLPRLVIGGTHDGVIANSSAHFGLNTKDATTPVIRTFQEAIMGGRENSYLLLLRGANHFSIVDIVDSTLALPFKDIPATQPQEHFRLLLATIIHLFIDAHVRHQPEAFQKLEQLLIVTNPLIQSFERK” reads “not soluble”; that for “MGSDKIHHHHHHMDSVKLIDLSEMRDILRSVNPFPGRWSFITSVEYMLDSRLYVDSIGDDAKVVRATLGPHDRNILDFGTGSGVFAIALRQVLPELDISAVDTTDNKSQSHPDFSDGQAAAHQRLIYPPLAERFRISFNHYNGHLLPYPDGSFDAISAYAVIEHIPHEELDAAMREIARVLKDDGKLFVFKMPRKLALVEHVAGILGLGRHDTLYGDGEALRLFRSYGWKVEKTFKSNMVFDYPGWLTNRLYHPLKLIDRILYWSPWRLFAHHNNFVLRKLERPQL”, “not soluble”; that for “MGSDKIHHHHHHMEISDIIYGQHHIDGVLEELIKSAPVQRLKGIYQGGASFLVNRKWNVTRYEHSIGVMLLIKKLGGTIEEQIAGLLHDVSHTAFSHVVDVVFENQAEDYHENIFQQVIVHSEIPDILQKHGYHTEELLSDDSRWTLLEQPAPELCADRTDYTLRDMYRYGHINLHEAQTFLDHLIVRNGRMFPDSIEAAEWFVSVYYKEVIDFFLNPVNVYGYEYLARALKAALRHDVISAEDLLKTDQEVLNILRASKNEEVLSLLTSIHPGIQVIEDDIQYDFHQKKKMRLIDPSIFLDDKWIKSSGVSEKVRKMGEAAYQKAKKGVYIKILKQ”, “not soluble”. The result for “MTISTTSTPHDAVFKSFLRHPDTARNFINIHLPAPLRKLCDLTTLKLEPNSFIDEDLRQYYSDLLWSVKTQEGVGYIYVVIEHQSKPEELMAFRMMRYSIAAMQNHLDAGYKELPLVIPMLFYHGCRSPYPYSLCWLDEFAEPAIARKIYSSAFPLVDITVVPDDEIMQHRKMALLELIQKHIRQRDLLGLVDQIVSLLVTGNTNDRQLKALFNYVLQTGDAQRFRAFIGEITERAPQEKEKLMTIADRLREEGAMQGKHEEALRIAQEMLDRGLDRELVMMVTRLSPDDLIAQSH” reads “not soluble”; that for “MGSDKIHHHHHHMQREEWFHRAVIYQVDSSLFYDANGDGFGDLAGIRQKLHYIRSLGATVLWLTPFYLTPLQDDGYDISDHLQPDPRFGTIADVIELIARARELGLRVIVELVIQHTSAQHPWFQAARRDPRSPWRPYYLWADRPPENDDPPMFPGVEESVWRWDEQAGQYYRHMFYHHEPDLNLAHPPVIAEIENIITFWLQAGVSGFRLDAASHLVKQAGKGDETRGYPLLTHLRQVVQRLNPDAILLGEVDVAVEDYRHYFGQGDRLQMVLNFWLNKYLYLSLAQQRAAPVVKALQAMVTPPDGCCFVNWLRNHDELDLEGIGERNKRQVIRTFAPDKSMSVYQRGVRRRLAPMLDGDTRRIALAHAILLALPGVPVMRYGDEIGMGDDLSLPERYAVRTPMQWSAAANAGFSRAARDDLPVKPVASGRFRYQRINVETALRHPRSLLHRVRNMVLARTEYTEPGSLPFTLLTLKPDAVLGLLYRSESREVLMLANCSQQAVEVLLPPLAEGYWSPILEDKLYQDGLHGGKDARLALSGYGYRWFSRSLS”, “not soluble”. For “MFFIHKLFPAKLIRRYKRFLADVKREDQHIFTVSVPNTGSMLGLTTPNSNIWLSYHNNPKRRYAYQLEIVEANNTLVGINTTLPNKLALEAIQNNLLPELNGYKTILKEQRYGIQSRIDFLLRDDILPDCYLEIKNVHFIRQKGLAEFPDTETKRGTRHLEELIKIVQQGKRAVMLYIIQREDCSAFTICRDLDPTYGRKFDLALESGVEFYAIKCQVSVEGIFPIQQVKIENRK” the value was “not soluble”; for “MAHHHHHHMGTLEAQTQGPGSMLNKRKFYINGLWDDPSTPHDLYVIDPSTEEACAVISLGSTRDADKAINAAKKAFQTWKTTSPHERLGFVEKILEIYEKRSSDMAKTISMEMGAPIDMALNAQTATGSSHIRNFIKAYKEFSFQEALIEGNEQAILHYDAIGVVGLITPWNWPMNQVTLKVIPALLAGCTMVLKPSEIAPLSAMLFAEILDEAALPSGVFNLINGDGANVGSYLSAHPDLEMISFTGSTRAGKDISKNASNTLKRVCLELGGKGANIIFADADIDALQRGVRHCFYNSGQSCNAPTRMLVEQAIYDKAIKTAKDIAEKTQVGPGHQTGNHIGPVVSKEQYDKIQDLIQSGIDEGATLVTGGTGLPMGMERGYYVRPTVFADVKPHMRIFREEIFGPVLSLLPFNTEDEAVTLANDTEYGLTNYIQSQDRSKCRRIAAQVRSGMVEVNGHELPGGSYFGGVKFSGRAREGGLWGIKEFLDTKAISYW”, “soluble”; for “MTLEKFVDALPIPDTLKPVQQSKEKTYYEVTMEECTHQLHRDLPPTRLWGYNGLFPGPTIEVKRNENVYVKWMNNLPSTHFLPIDHTIHHSDSQHEEPEVKTVVHLHGGVTPDDSDGYPEAWFSKDFEQTGPYFKREVYHYPNQQRGAILWYHDHAMALTRLNVYAGLVGAYIIHDPKEKRLKLPSDEYDVPLLITDRTINEDGSLFYPSAPENPSPSLPNPSIVPAFCGETILVNGKVWPYLEVEPRKYRFRVINASNTRTYNLSLDNGGDFIQIGSDGGLLPRSVKLNSFSLAPAERYDIIIDFTAYEGESIILANSAGCGGDVNPETDANIMQFRVTKPLAQKDESRKPKYLASYPSVQHERIQNIRTLKLAGTQDEYGRPVLLLNNKRWHDPVTETPKVGTTEIWSIINPTRGTHPIHLHLVSFRVLDRRPFDIARYQESGELSYTGPAVPPPPSEKGWKDTIQAHAGEVLRIAATFGPYSGRYVWHCHILEHEDYDMMRPMDITDPHK”, “soluble”. “MILLIDNYDSFVFNVKSMLEQLSNDEILVRRNDAISLSEIKNLNPTHIILSPGPKHPSQSGICLEIFKARLNIPVLGICLGHQALALAFDSLVVKMQEPMHAKNSLIKQCRENELFSNLPSNFSVMRYHSLEVKQLSDELEILALDEKGVIMALGHKNLPYYGVQFHPESYFSEYGLQLFSNFLKQDIKKPQKQENPLSFYLQKMSENHFLQSDDFEQICKIIMSKDYEILQVVALLILITEKSLNEKSLSAFVRQILRYSQTFSDESEMIDICGTGGDGFKSINVSTTSAFILAALGVKVAKHGNRAISSSSGSTDVLEALNITTPNTLESVLKQLNNQGLSFLHAPFFHPLVGELKEIRSRLGVRTVFNVLGPLLHPNLKLKYQLMGNYHAPVHRLLIEVLKNLGRKKALVVRGNDGMDELSICDESKIYELCEGEILEYSICPEQFGFKRAFHSEIIGSSAYDNAKDLKDILSGRMQGAKFDLVVLNAMFALYTANKASSPLVAKDMILEAIYSGKVIEYFKEYQAYAKA”: the “soluble on expression in E. coli” value is on record as “not soluble”.
